In patent US8802826B2, “Anti-clusterin antibodies and antigen binding fragments and their use to reduce tumor volume” (Alethia Biotherapeutics Inc., priority 2009, dated 2014):

Key:
[1] = tested on: PC-3 prostate cancer cells; test: PC-3 prostate tumor xenograft; type: in vivo, SCID mice; conditions: single injection 10 mg/kg i.p. on day 5
Protocol: PC-3 prostate cancer cells (2×10^6) were implanted s.c. into SCID mice and allowed to grow until the tumor sizes were approximately 100 mm^3. Tumors were measured bi-weekly with a digital caliper and tumor volumes were calculated as L×W×H. Each group contained 8 animals that were randomized prior to the beginning off the treatments. The results were expressed as mm^3±SEM.
A second prostate cancer model study was conducted in a different tumor model by implanting PC-3 prostate cancer cells. PC-3 cells are also hormone-insensitive but are documented as being slightly more invasive than the DU145 cells. As was described above, the cells were implanted sub-cutaneously in SCID mice and treatments were initiated when the tumors reached a volume of approximately 100 mm^3 (designated day 1). The h16B5 injections were administered i.p. on day 1 at 5 mg/kg and continued twice per week thereafter whereas a single TxT injection at 10 mg/kg was administered i.p. on day 5.

[2] = biological target: T1, human clusterin (recombinant monomeric clusterin) (Homo sapiens, UniProt P10909); test: BIAcore kinetic analysis of antibody binding to immobilized clusterin; conditions: for KD of the interaction with immobilized human clusterin: stated in words
T1 construct: Recombinant monomeric clusterin was immobilized on a CM3 chip with normal amine coupling method
T1 sequence (P10909 23-449): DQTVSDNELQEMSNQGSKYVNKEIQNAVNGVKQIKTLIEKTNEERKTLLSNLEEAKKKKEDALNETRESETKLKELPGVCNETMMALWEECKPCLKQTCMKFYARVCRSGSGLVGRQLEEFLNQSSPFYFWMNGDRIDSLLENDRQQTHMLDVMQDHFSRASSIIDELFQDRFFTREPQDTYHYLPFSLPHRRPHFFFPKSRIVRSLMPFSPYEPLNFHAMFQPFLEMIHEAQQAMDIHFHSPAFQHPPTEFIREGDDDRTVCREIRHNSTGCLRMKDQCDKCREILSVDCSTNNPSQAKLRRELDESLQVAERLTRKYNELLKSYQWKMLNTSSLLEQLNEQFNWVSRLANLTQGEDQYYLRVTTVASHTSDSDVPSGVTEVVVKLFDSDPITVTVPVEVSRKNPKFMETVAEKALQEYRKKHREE
Protocol: The purpose of these investigations is to determine the kinetics parameters of anti-clusterin antibodies. In particular, to determine whether the humanization of the 16B5 and 21B12 anti-clusterin monoclonal antibody affects the kinetics parameters of its binding to human clusterin. To this end, a kinetic analysis method was developed using the BIAcore 3000. Human clusterin was immobilized on a sensor chip. Full length antibodies or Fab fragments were injected and allowed to interact with the immobilized clusterin. This example described the exemplary antibody 16B5 but the 21B12 exemplary antibody was prepared and tested in a similar manner.
HBST (10 mM Hepes pH 7.4, 135 mM NaCl, 3.4 mM EDTA, 0.005% Tween 20) was used as running buffer for all BIAcore experiments. Recombinant monomeric clusterin was immobilized on a CM3 chip with normal amine coupling method at a flow of 5 μl/min. Surface was activated with 35 μl of a mixture of 50 mM NHS/0.2M EDC. Clusterin in 10 mM Na-acetate pH 4.5 was injected until a desired amount was captured (below 60RU). Unreacted esters were deactivated with 35 μL1 of 1M ethanolamine hydrochloride-NaOH pH8.5. A control surface was prepared by injecting NHS/EDC and ethanolamine in the same manner.
Kinetics analysis was conducted at a flow of 50 μl/min. Full length antibodies (mouse or humanized) or Fab were diluted in HBST. Concentration range was from 1.953-31.25 nM for the full length antibodies and 15.625-250 nM for the Fab. Each concentration was injected over the clusterin and a control surface for 5 min followed with a 5 min dissociation wash. The clusterin surface was regenerated between each antibody injection with 50 μl of 20 mM HCl.

EMT6 cells = test: wound healing (scratch) migration assay; type: cell-based, mouse; conditions: 37 C for 15 h
Protocol: FIG. 4. h16B5 blocks the migration of cancer cell lines.
To test the activity of anti-clusterin antibodies against cancer cell migration, a standard wound healing, or scratch assay, was used. In this assay, EMT6 cells, a mouse mammary carcinoma cell line, was plated at high density and subjected to wounding by the creation of a scratch in the cell layer. At time 0, a wide denuded area is evident that quickly fills up after incubation of the cells at 37 C for 15 h (see upper left-hand panels in FIG. 4).

**Q.** How did the “time after injection at which tumors appeared to recover from treatment” value [1] turn out when `CC(=O)O[C@@]12CO[C@@H]1C[C@H](O)[C@@]1(C)C(=O)[C@H](O)C3=C(C)[C@@H](OC(=O)[C@H](O)[C@@H](NC(=O)OC(C)(C)C)c4ccccc4)C[C@@](O)([C@@H](OC(=O)c4ccccc4)[C@H]21)C3(C)C` [TxT, taxotere, reference compound] was run?
**A.** approximately 18 days

B1: HH16B5 Fab: Fab fragment of humanized 16B5 prepared by papain digestion (antibody, V domains shown)
VH: QVQLVQSGAEVKKPGATVKISCKVSGFNIKDIYMHWVQQAPGKGLEWMGRIDPAYGNTKYDPKFQGRVTITADTSTDTAYMELSSLRSEDTAVYYCARRYDTAMDYWGQGTLVTVSS
VL: DIVMTQSPDSLAVSLGERATINCKSSQSLLNSRTRKNYLAWYQQKPGQPPKLLIYWASTRESGVPDRFSGSGSGTDFTLTISSLQAEDVAVYYCKQSYNLWTFGQGTKLEIK
**Q.** How did the “kinetics parameters compared with the parent mouse antibody” value ([2]; full length vs full length, Fab vs Fab) turn out when B1 was run?
**A.** slightly better

B2: mouse 16B5: parent mouse anti-clusterin monoclonal antibody, VL SEQ ID NO.:25, VH SEQ ID NO.:29 (antibody, V domains shown)
VH: EVQLQQSGAELVKPGASVRLSCTTSGFNIKDIYMHWVKQRPEQGLEWIGRIDPAYGNTKYDPKFQGKATITADTSSNTAYLQLSSLTSEDTAVYYCARRYDTAMDYWGQGTSVTVSS
VL: DIVMSQSPSSLAVSAGEKVTMSCKSSQSLLNSRTRKNYLAWYQQKPGQSPKLLIYWASTRESGVPDRFTGSGSGTDFTLTISSVQAEDLAVYYCKQSYNLWTFGGGTKLEFK
modifications: murine 16B5 VH; murine 16B5 VL
**Q.** Which “KD of the interaction with immobilized human clusterin” value [2] does the source give for B2 here?
**A.** low nM range

**Q.** What about the “migration of cells into the denuded area” value (EMT6 cells) of the same molecule?
**A.** reduced number of cells in the denuded area

B3: mouse 21B12: parent mouse anti-clusterin monoclonal antibody, VL SEQ ID NO.:33, VH SEQ ID NO.:37 (antibody, V domains shown)
VH: QIQLVQSGPELKKPGETVKISCKASGYTFTNYGMHWVKQAPGKGLKWMGWINTYTGEPTYADDFKGRFAFSLETSASTAYLQINNLKNEDTATYFCARDGFLYFFDYWGQGTTLTVSS
VL: DIVMSQSPSSLAVSVGEKVTMSCKSSQSLLYSSNQKNYLAWYQQRPGQSPKLLIYWASTRESGVPDRFTGSGSGTDFTLTISSVKAEDLAVYYCQQYYIYPRTFGGGTKLEIK
modifications: murine 21B12 VH; murine 21B12 VL
**Q.** Which “KD of the interaction with immobilized human clusterin” value [2] does the source give for B3 here?
**A.** low nM range
